From US20240132578A1

Key:
Assay in all cases: cell-based or functional assay
[1] = target: HIV-1 92BR020 envelope (Env) on pseudovirus (HIV-1)
[2] = target: HIV-1 92RW024 envelope glycoprotein (Env) on pseudovirus (HIV-1 (clade A))
[3] = target: HIV-1 Env of isolate 92RW020 (Clade A) (HIV-1)
[4] = target: HIV-1 Env of isolate 92UG024 (clade D pseudovirus) (HIV-1)
[5] = target: HIV-1 Env of isolate 92UG046 (clade D pseudovirus) (HIV-1)
[6] = target: HIV-1 Env of isolate APV_17, clade B (HIV-1)
[7] = target: HIV-1 Env of isolate MGRM-A-001 (clade A pseudovirus) (HIV-1)
[8] = target: HIV-1 Env of isolate MGRM-A-009 (clade A pseudovirus) (HIV-1)
[9] = target: HIV-1 Env of isolate MGRM-D-001 (clade D pseudovirus) (HIV-1)
[10] = target: HIV-1 Env of isolate MGRM-D-002 (clade D pseudovirus) (HIV-1)
[11] = target: HIV-1 Env of isolate MGRM-D-018 (clade D pseudovirus) (HIV-1)
[12] = target: HIV-1 Env of isolate VLGCB3, clade B (HIV-1)
[13] = target: HIV-1 Env of pseudovirus MGRM-G-015 (HIV-1)
[14] = target: HIV-1 Env of pseudovirus MGRM-G-017 (HIV-1)
[15] = target: HIV-1 Env of pseudovirus MGRM-G-027 (HIV-1)
[16] = target: HIV-1 MGRM-AG-005 Env (pseudovirus) (HIV-1)
[17] = target: HIV-1 envelope glycoprotein (Env) of isolate MGRM-C-013 (HIV-1)
[18] = target: HIV-1 envelope glycoprotein (Env) of isolate MGRM-C-014 (HIV-1)
[19] = target: HIV-1 94UG103 Env (HIV-1)
[20] = target: HIV-1 Env of isolate 92UG001 (pseudovirus) (HIV-1)
[21] = target: HIV-1 Env of isolate 92UG046 (pseudovirus) (HIV-1)
[22] = target: HIV-1 Env of isolate 92WR026 (pseudovirus) (HIV-1)
[23] = target: HIV-1 Env of isolate 98CN009 (pseudovirus) (HIV-1)
[24] = target: HIV-1 Env of isolate MGRM-A-011 (subtype A) (HIV-1)
[25] = target: HIV-1 Env of isolate MGRM-D-004 (pseudovirus) (HIV-1)
[26] = target: HIV-1 Env of isolate MGRM-D-011 (pseudovirus) (HIV-1)
[27] = target: HIV-1 Env of isolate MGRM-F1-008 (HIV-1)
[28] = target: HIV-1 Env of isolate MGRM-F1-016 (HIV-1)
[29] = target: HIV-1 Env of isolate MGRM-F1-017 (HIV-1)
[30] = target: HIV-1 Env of pseudovirus isolate MGRM-C-006 (clade C) (HIV-1)
[31] = target: HIV-1 Env of pseudovirus isolate MGRM-C-017 (clade C) (HIV-1)
[32] = target: HIV-1 Env of pseudovirus isolate MGRM-C-023 (clade C) (HIV-1)
[33] = target: HIV-1 Env of pseudovirus isolate MGRM-C-024 (clade C) (HIV-1)
[34] = target: HIV-1 JR-CSF Env I414A (HIV-1 (isolate JR-CSF)) (UniProt P20871)
[35] = target: HIV-1 JR-CSF Env N396A (HIV-1 (isolate JR-CSF)) (UniProt P20871)
[36] = target: HIV-1 JR-CSF Env T303A (HIV-1 (isolate JR-CSF, clade B)) (UniProt P20871)
HIV-1 JRCSF Env (HIV-1) = HIV-1 JRCSF Env (HIV-1) (UniProt P20871)
[37] = target: HIV-1 MGRM-D-018 Env (HIV-1)

Sequence of 1443_C16 (PG16) (TCN-116) (antibody) (VH): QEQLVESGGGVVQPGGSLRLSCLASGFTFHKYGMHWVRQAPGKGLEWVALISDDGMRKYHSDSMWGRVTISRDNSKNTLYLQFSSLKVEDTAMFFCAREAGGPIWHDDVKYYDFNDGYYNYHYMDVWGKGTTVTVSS
Sequence of 1443_C16 (PG16) (TCN-116) (antibody) (VL): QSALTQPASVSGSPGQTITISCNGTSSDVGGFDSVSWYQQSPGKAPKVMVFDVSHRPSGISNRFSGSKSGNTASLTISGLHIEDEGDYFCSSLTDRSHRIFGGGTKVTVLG

Substance: 2F5 (antibody)
- neutralization IC50 [1]: > 50 µg/mL
- IC50 (µg/ml), pseudovirus neutralization [2]: 8.22 µg/mL
- IC90 (neutralization of pseudovirus) [3]: 27.7 µg/mL
- IC50, pseudovirus neutralization [4]: 0.95 µg/mL
- IC50, pseudovirus neutralization [5]: > 50 µg/mL
- IC50 (µg/ml), pseudovirus neutralization [6]: 4.61 µg/mL
- IC50 (µg/ml), pseudovirus neutralization [7]: > 50 µg/mL
- IC50 (µg/ml), pseudovirus neutralization [8]: 9.4 µg/mL
- IC50, pseudovirus neutralization [9]: 0.63 µg/mL
- IC50, pseudovirus neutralization [10]: 24.6 µg/mL
- IC50, pseudovirus neutralization [11]: 4.05 µg/mL
- IC50 (µg/ml), pseudovirus neutralization [12]: > 50 µg/mL
- IC50 (µg/ml), pseudovirus neutralization [13]: 0.43 µg/mL
- IC50 (µg/ml), pseudovirus neutralization [14]: 0.6 µg/mL
- IC50 (µg/ml), pseudovirus neutralization [15]: 0.28 µg/mL
- IC50 (µg/ml), pseudovirus neutralization [16]: > 50 µg/mL
- IC50 (µg/ml), pseudovirus neutralization [17]: 18.4 µg/mL
- IC50 (µg/ml), pseudovirus neutralization [18]: > 50 µg/mL

Substance: 5147_N06 (PGT-130) (antibody)
- IC50, pseudovirus neutralization [19]: 0.635 µg/mL
- IC50 (µg/mL), pseudovirus neutralization [20]: > 50 µg/mL
- IC50 (µg/mL), pseudovirus neutralization [21]: > 50 µg/mL
- IC50 (µg/mL), pseudovirus neutralization [22]: 0.037 µg/mL
- IC50 (µg/mL), pseudovirus neutralization [23]: 0.136 µg/mL
- IC50, pseudovirus neutralization [24]: > 50 µg/mL
- IC50 (µg/mL), pseudovirus neutralization [25]: 1.21 µg/mL
- IC50 (µg/mL), pseudovirus neutralization [26]: 0.019 µg/mL
- IC50 (µg/mL), pseudovirus neutralization [27]: 0.065 µg/mL
- IC50 (µg/mL), pseudovirus neutralization [28]: > 50 µg/mL
- IC50 (µg/mL), pseudovirus neutralization [29]: > 50 µg/mL
- IC50, pseudovirus neutralization [30]: 0.095 µg/mL
- IC50, pseudovirus neutralization [31]: > 50 µg/mL
- IC50, pseudovirus neutralization [32]: 0.151 µg/mL
- IC50, pseudovirus neutralization [33]: > 50 µg/mL
- Fold IC50 increase relative to wild-type (pseudovirus neutralization) [34]: 0.7 fold
- Fold IC50 increase relative to wild-type (pseudovirus neutralization) [35]: 1 fold
- Fold IC50 increase relative to wild-type [36]: > 250 fold
- IC50, pseudovirus neutralization (HIV-1 JRCSF Env (HIV-1)): 0.0089 µg/mL
- IC50, pseudovirus neutralization [37]: 0.0378 µg/mL

Substance: 1495_C14 (PGC14) (antibody)
- neutralization IC50 [1]: 0.637 µg/mL
- IC50 (µg/ml), pseudovirus neutralization [2]: > 50 µg/mL
- IC50, pseudovirus neutralization [4]: > 50 µg/mL
- IC50, pseudovirus neutralization [5]: > 50 µg/mL
- IC50 (µg/ml), pseudovirus neutralization [6]: > 50 µg/mL
- IC50 (µg/ml), pseudovirus neutralization [7]: > 50 µg/mL
- IC50 (µg/ml), pseudovirus neutralization [8]: > 50 µg/mL
- IC50, pseudovirus neutralization [9]: > 50 µg/mL
- IC50, pseudovirus neutralization [10]: 29 µg/mL
- IC50, pseudovirus neutralization [11]: > 50 µg/mL
- IC50 (µg/ml), pseudovirus neutralization [12]: 21 µg/mL
- IC50 (µg/ml), pseudovirus neutralization [13]: > 50 µg/mL
- IC50 (µg/ml), pseudovirus neutralization [14]: > 50 µg/mL
- IC50 (µg/ml), pseudovirus neutralization [15]: > 50 µg/mL
- IC50 (µg/ml), pseudovirus neutralization [16]: > 50 µg/mL
- IC50 (µg/ml), pseudovirus neutralization [17]: > 50 µg/mL
- IC50 (µg/ml), pseudovirus neutralization [18]: > 50 µg/mL

Substance: 5136_H01 (PGT-131) (antibody)
- IC50 (µg/mL), pseudovirus neutralization [20]: > 50 µg/mL
- IC50 (µg/mL), pseudovirus neutralization [21]: > 50 µg/mL
- IC50 (µg/mL), pseudovirus neutralization [22]: 0.041 µg/mL
- IC50 (µg/mL), pseudovirus neutralization [23]: 4.05 µg/mL
- IC50, pseudovirus neutralization [24]: > 50 µg/mL
- IC50 (µg/mL), pseudovirus neutralization [25]: 2.01 µg/mL
- IC50 (µg/mL), pseudovirus neutralization [26]: 0.756 µg/mL
- IC50 (µg/mL), pseudovirus neutralization [27]: 2.74 µg/mL
- IC50 (µg/mL), pseudovirus neutralization [28]: > 50 µg/mL
- IC50 (µg/mL), pseudovirus neutralization [29]: > 50 µg/mL
- IC50, pseudovirus neutralization [30]: 0.611 µg/mL
- IC50, pseudovirus neutralization [31]: > 50 µg/mL
- IC50, pseudovirus neutralization [32]: 0.143 µg/mL
- IC50, pseudovirus neutralization [33]: > 50 µg/mL
- Fold IC50 increase relative to wild-type (pseudovirus neutralization) [34]: 1 fold
- Fold IC50 increase relative to wild-type (pseudovirus neutralization) [35]: 0.9 fold
- Fold IC50 increase relative to wild-type [36]: > 170 fold

Substance: 1443_C16 (PG16) (TCN-116) (antibody)
- neutralization IC50 [1]: > 50 µg/mL
- IC50 (µg/ml), pseudovirus neutralization [2]: 0.08 µg/mL
- IC90 (neutralization of pseudovirus) [3]: > 50 µg/mL
- IC50, pseudovirus neutralization [4]: 24 µg/mL
- IC50, pseudovirus neutralization [5]: 1.42 µg/mL
- IC50 (µg/ml), pseudovirus neutralization [6]: 24.8 µg/mL
- IC50 (µg/ml), pseudovirus neutralization [7]: > 50 µg/mL
- IC50 (µg/ml), pseudovirus neutralization [8]: 0.01 µg/mL
- IC50, pseudovirus neutralization [9]: > 50 µg/mL
- IC50, pseudovirus neutralization [10]: 0.01 µg/mL
- IC50, pseudovirus neutralization [11]: 0.004 µg/mL
- IC50 (µg/ml), pseudovirus neutralization [12]: 0.4 µg/mL
- IC50 (µg/ml), pseudovirus neutralization [13]: 5.33 µg/mL
- IC50 (µg/ml), pseudovirus neutralization [14]: 0.02 µg/mL
- IC50 (µg/ml), pseudovirus neutralization [15]: 0.01 µg/mL
- IC50 (µg/ml), pseudovirus neutralization [16]: > 50 µg/mL
- IC50 (µg/ml), pseudovirus neutralization [17]: > 50 µg/mL
- IC50 (µg/ml), pseudovirus neutralization [18]: > 50 µg/mL

Substance: 4E10 (antibody)
- neutralization IC50 [1]: 41.4 µg/mL
- IC50 (µg/ml), pseudovirus neutralization [2]: 8.88 µg/mL
- IC90 (neutralization of pseudovirus) [3]: 36.1 µg/mL
- IC50, pseudovirus neutralization [4]: 2.17 µg/mL
- IC50, pseudovirus neutralization [5]: 12.2 µg/mL
- IC50 (µg/ml), pseudovirus neutralization [6]: 10.5 µg/mL
- IC50 (µg/ml), pseudovirus neutralization [7]: 15.1 µg/mL
- IC50 (µg/ml), pseudovirus neutralization [8]: 12 µg/mL
- IC50, pseudovirus neutralization [9]: 1.84 µg/mL
- IC50, pseudovirus neutralization [10]: 9.44 µg/mL
- IC50, pseudovirus neutralization [11]: 3.9 µg/mL
- IC50 (µg/ml), pseudovirus neutralization [12]: 5.76 µg/mL
- IC50 (µg/ml), pseudovirus neutralization [13]: 1.07 µg/mL
- IC50 (µg/ml), pseudovirus neutralization [14]: 1.14 µg/mL
- IC50 (µg/ml), pseudovirus neutralization [15]: 1.19 µg/mL
- IC50 (µg/ml), pseudovirus neutralization [16]: 2.13 µg/mL
- IC50 (µg/ml), pseudovirus neutralization [17]: 2.1 µg/mL
- IC50 (µg/ml), pseudovirus neutralization [18]: 2.48 µg/mL

Substance: 2G12 (antibody)
- neutralization IC50 [1]: 2.26 µg/mL
- IC50 (µg/ml), pseudovirus neutralization [2]: > 50 µg/mL
- IC90 (neutralization of pseudovirus) [3]: 6.23 µg/mL
- IC50, pseudovirus neutralization [4]: 0.42 µg/mL
- IC50, pseudovirus neutralization [5]: > 50 µg/mL
- IC50 (µg/ml), pseudovirus neutralization [6]: > 50 µg/mL
- IC50 (µg/ml), pseudovirus neutralization [7]: > 50 µg/mL
- IC50 (µg/ml), pseudovirus neutralization [8]: 7.47 µg/mL
- IC50, pseudovirus neutralization [9]: > 50 µg/mL
- IC50, pseudovirus neutralization [10]: > 50 µg/mL
- IC50, pseudovirus neutralization [11]: 0.12 µg/mL
- IC50 (µg/ml), pseudovirus neutralization [12]: 7.9 µg/mL
- IC50 (µg/ml), pseudovirus neutralization [13]: > 50 µg/mL
- IC50 (µg/ml), pseudovirus neutralization [14]: > 50 µg/mL
- IC50 (µg/ml), pseudovirus neutralization [15]: > 50 µg/mL
- IC50 (µg/ml), pseudovirus neutralization [16]: > 50 µg/mL
- IC50 (µg/ml), pseudovirus neutralization [17]: > 50 µg/mL
- IC50 (µg/ml), pseudovirus neutralization [18]: > 50 µg/mL

Substance: b12 (antibody)
- neutralization IC50 [1]: 27.5 µg/mL
- IC50 (µg/ml), pseudovirus neutralization [2]: > 50 µg/mL
- IC90 (neutralization of pseudovirus) [3]: > 50 µg/mL
- IC50, pseudovirus neutralization [4]: 45.6 µg/mL
- IC50, pseudovirus neutralization [5]: 0.07 µg/mL
- IC50 (µg/ml), pseudovirus neutralization [6]: > 50 µg/mL
- IC50 (µg/ml), pseudovirus neutralization [7]: > 50 µg/mL
- IC50 (µg/ml), pseudovirus neutralization [8]: 4.34 µg/mL
- IC50, pseudovirus neutralization [9]: > 50 µg/mL
- IC50, pseudovirus neutralization [10]: > 50 µg/mL
- IC50, pseudovirus neutralization [11]: 1.39 µg/mL
- IC50 (µg/ml), pseudovirus neutralization [12]: 0.15 µg/mL
- IC50 (µg/ml), pseudovirus neutralization [13]: > 50 µg/mL
- IC50 (µg/ml), pseudovirus neutralization [14]: > 50 µg/mL
- IC50 (µg/ml), pseudovirus neutralization [15]: > 50 µg/mL
- IC50 (µg/ml), pseudovirus neutralization [16]: > 50 µg/mL
- IC50 (µg/ml), pseudovirus neutralization [17]: > 50 µg/mL
- IC50 (µg/ml), pseudovirus neutralization [18]: > 50 µg/mL
